By Kd is commonly meant the concentration at which binding is half-saturated.

Test [1] concerns the target T1, zinc-binding anti-sigma (ZAS) protein RsrA (S. coelicolor M145, UniProt Q7AKG8 1-105).
T1 chain: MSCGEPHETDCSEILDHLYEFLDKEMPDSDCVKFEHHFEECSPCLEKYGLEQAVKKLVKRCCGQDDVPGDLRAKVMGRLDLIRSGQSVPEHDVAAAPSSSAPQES
Put plainly: BLI. (In general: Biolayer interferometry detects binding as a change in optical thickness at a sensor tip.)

The target in test [2] is T2, rsrA-cfp-pET28a (+) protein (RCP) (S. coelicolor M145, UniProt Q7AKG8 1-105).
T2 chain: T1 chain
Put plainly: BLI.

B1: sigma factor σ^R (natural protein)
chain: not shown
modifications: biotinylated before capture on streptavidin biosensor tips
For B1, the results for the Kd in test [1] and in test [2] were 47 nM and 72 nM, respectively.

B2: sigR-yfp-pET28a (+) protein (SYP) (natural protein)
chain: not shown
modifications: biotinylated for the biolayer interferometry only
B2: the Kd in test [1] was 52 nM.

Values taken from publication PMC3961337 (2014).
